The text below walks through data of PMC10491584, “Structural convergence endows nuclear transport receptor Kap114p with a transcriptional repressor function toward TATA-binding protein” (Nature Communications, 2023).

One assay deals with T1, Kap114pΔ(Y933) (S. cerevisiae, UniProt P53067 1-1004, ΔY933).
T1 construct: Kap114p, S. cerevisiae, full length with residue Y933 deleted; also called GST-Kap114p (Δ933); source: E. coli Rosetta, purified (GST resin, MonoQ, Superdex 200)
T1 sequence (looked up): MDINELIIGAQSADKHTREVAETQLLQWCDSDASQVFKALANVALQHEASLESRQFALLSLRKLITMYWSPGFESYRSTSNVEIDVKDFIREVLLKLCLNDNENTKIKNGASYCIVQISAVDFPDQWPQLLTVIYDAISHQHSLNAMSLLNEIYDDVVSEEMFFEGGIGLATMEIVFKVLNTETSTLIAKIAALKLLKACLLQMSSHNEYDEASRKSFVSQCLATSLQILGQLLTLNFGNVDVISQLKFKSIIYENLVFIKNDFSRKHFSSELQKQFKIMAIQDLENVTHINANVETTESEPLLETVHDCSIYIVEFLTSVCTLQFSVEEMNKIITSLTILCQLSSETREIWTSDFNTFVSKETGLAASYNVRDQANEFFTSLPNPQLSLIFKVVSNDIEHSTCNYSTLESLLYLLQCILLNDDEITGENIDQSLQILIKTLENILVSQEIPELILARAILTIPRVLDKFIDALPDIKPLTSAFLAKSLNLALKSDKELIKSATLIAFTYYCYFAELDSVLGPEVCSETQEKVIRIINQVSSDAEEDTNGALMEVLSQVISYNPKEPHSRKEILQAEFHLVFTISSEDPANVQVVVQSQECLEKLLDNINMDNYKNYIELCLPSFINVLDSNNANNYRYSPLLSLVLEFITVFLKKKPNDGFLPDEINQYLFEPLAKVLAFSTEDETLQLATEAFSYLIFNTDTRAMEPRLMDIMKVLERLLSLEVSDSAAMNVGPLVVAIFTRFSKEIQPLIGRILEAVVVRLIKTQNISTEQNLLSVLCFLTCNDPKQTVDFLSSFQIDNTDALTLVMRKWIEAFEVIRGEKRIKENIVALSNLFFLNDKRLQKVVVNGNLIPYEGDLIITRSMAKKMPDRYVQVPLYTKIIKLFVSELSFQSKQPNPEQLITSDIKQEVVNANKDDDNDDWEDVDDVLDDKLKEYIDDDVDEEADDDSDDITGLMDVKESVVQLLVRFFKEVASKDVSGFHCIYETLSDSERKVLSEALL
Put plainly: ITC; MicroCal iTC200, 25 °C, 20 mM HEPES pH 7.4, 150 mM NaCl; high concentration: 50 µM wild type or mutant Kap114p in the sample cell, 500 µM wild type or mutant yTBPC in the syringe; triplicate. The conditions noted are these: both partners purified.

For a further assay, the target named is T2, Kap114p (Y370A) (S. cerevisiae, UniProt P53067 1-1004, Y370A).
T2 construct: Kap114p, S. cerevisiae, full length with Y370A; also called GST-Kap114p (Y370A); source: E. coli Rosetta, purified (GST resin, MonoQ, Superdex 200)
T2 sequence (looked up): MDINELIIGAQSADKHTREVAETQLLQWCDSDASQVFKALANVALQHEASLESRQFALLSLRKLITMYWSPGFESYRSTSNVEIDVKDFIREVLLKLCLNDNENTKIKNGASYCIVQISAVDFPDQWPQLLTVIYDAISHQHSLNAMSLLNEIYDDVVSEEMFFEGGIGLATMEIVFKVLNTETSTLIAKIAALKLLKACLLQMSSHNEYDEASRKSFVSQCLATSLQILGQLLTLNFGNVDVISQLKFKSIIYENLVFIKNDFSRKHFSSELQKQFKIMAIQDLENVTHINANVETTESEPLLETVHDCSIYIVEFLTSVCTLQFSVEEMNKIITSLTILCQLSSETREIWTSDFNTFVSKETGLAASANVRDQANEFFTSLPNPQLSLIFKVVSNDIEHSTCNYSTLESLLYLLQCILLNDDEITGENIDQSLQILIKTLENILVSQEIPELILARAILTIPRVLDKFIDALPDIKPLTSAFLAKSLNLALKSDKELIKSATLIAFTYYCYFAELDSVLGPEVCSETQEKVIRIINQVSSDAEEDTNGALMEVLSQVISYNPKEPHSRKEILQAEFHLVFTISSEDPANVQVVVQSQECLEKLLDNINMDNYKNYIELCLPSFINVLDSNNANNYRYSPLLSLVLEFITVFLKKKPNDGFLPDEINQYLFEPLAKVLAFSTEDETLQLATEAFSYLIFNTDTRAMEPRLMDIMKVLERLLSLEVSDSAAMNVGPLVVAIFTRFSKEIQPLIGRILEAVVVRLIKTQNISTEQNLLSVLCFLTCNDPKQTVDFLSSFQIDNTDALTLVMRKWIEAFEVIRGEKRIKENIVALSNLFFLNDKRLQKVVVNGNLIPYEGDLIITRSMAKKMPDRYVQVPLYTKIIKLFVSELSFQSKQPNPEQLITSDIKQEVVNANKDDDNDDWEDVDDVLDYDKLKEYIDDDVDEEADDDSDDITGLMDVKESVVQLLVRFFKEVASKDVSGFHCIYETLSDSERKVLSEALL
The assay is described as above. As to conditions: both partners purified.

B1: yTBP^C wild type (core domain of yeast TATA-box binding protein, a.a. 61-240) (domain or fragment, S. cerevisiae, UniProt P13393 61-240, looked up)
chain: SGIVPTLQNIVATVTLGCRLDLKTVALHARNAEYNPKRFAAVIMRIREPKTTALIFASGKMVVTGAKSEDDSKLASRKYARIIQKIGFAAKFTDFKIQNIVGSCDVKFPIRLEGLAFSHGTFSSYEPELFPGLIYRMVKPKIVLLIFVSGKIVLTGAKQREEIYQAFEAIYPVLSEFRKM
notes: modified pET28a, 6xHis tag followed by a PreScission site; also called yTBPC WT; His-yTBP (61-240); source: E. coli Rosetta, purified (Ni-NTA, HiTrap SP, Superdex 75); not shown: His6, N-terminal, cleaved
By Kd is commonly meant the equilibrium constant for the complex coming apart. A higher Kd goes with lower affinity. For B1, the values for the Kd with Kap114pΔ(Y933) and in the assay with Kap114p (Y370A) were 7.7 nM and 20 nM, respectively.
